Experimental findings from publication PMC11793827 (PLOS Pathogens, 2025) are described below.

In assay [1] the target is T1, Omicron BA.1 SARS-CoV-2 RBD (SARS-CoV-2, Omicron BA.1, Q493R).
T1 construct: also called Omicron BA.1 RBD; BA.1 RBD
Nature of the assay: ELISA. Conditions: both partners purified. A general note: An ELISA detects its analyte on a solid surface through an enzyme-linked reagent.

In assay [2] the target is T2, Omicron BA.5 SARS-CoV-2 RBD (SARS-CoV-2, Omicron BA.5 (RBD same as …, strain)).
T2 construct: also called Omicron BA.5 RBD; BA.5 RBD
Description: ELISA. Conditions: both partners purified.

One may read the Kd as a measure of binding affinity in units of concentration. A lower Kd goes with tighter binding.

B1: BP3D5 (VHH)
VHH: EVQLQASGGGFVQPGGSLRLSCAASGRAFRIYTMGWFRQAPGKEREFVSAISAGDGAASYYADSVKGRFTISRDNSKNTVYLQMNSLRAEDTATYYCAQYWQSINPIYWGQGTQVTVSS
notes: also called HCAb BP3D5
For B1, the Kd in assay [1] worked out at 1.12 nM; in assay [2], 1.83 nM.
